Measurements from ChEMBL document CHEMBL1132216, “Studies on the monoamine oxidase-B-catalyzed biotransformation of 4-azaaryl-1-methyl-1,2,3,6-tetrahydropyridine derivatives” (J Med Chem, 1999).

Experiments:
Test in all cases: not read
[1] = substrate: CN1CC=C(c2ccncc2)CC1
Description: (§1) Km against bovine liver Monoamine oxidase B

[2] = substrate: CN1CC=C(n2nnc3ccccc32)CC1
Description: as §1

[3] = substrate: CN1CC=C(n2ccc3ccccc32)CC1
Description: as §1

[4] = substrate: CN1CC=C(c2cccn2C)CC1
Description: as §1

[5] = substrate: CN1CC=C(c2ccc[nH]2)CC1
Description: as §1

[6] = substrate: CN1CC=C(n2cccc2)CC1
Description: as §1

[7] = substrate: CN1CC=C(n2cnc3ccccc32)CC1
Description: as §1

[8] = substrate: CN1CC=C(n2ncc3ccccc32)CC1
Description: as §1

B1: Amine oxidase [flavin-containing] B (Bos taurus) (protein)
chain: MSSKCDVVVVGGGISGMAAAKLLHDSGLNVIVLEARDRVGGRTYTLRNQKVKYVDLGGSYVGPTQNHILRLSKELGLETYKVNEVERLIHHTKGKSYPFRGSFPSVWNPITYLDHNNLWRTMDDMGREIPSDAPWKAPLAEQWDLMTMKELLDKICWTESSKQLAILFVNLCVTAEIHEVSALWFLWYVKQCGGTTRIFSTSNGGQERKFVGGSGQVSERIMDLLGDRVKLERPVIHIDQTGENVLVETLNHELYEAKYVISAVPPVLGMKIHFNPPLPMMRNQLITRVPLGSVIKSIVYYKEPFWRNMDYCGSMIIEGEEAPVAYALDDTKPDGSYPAIIGFILAHKARKLARLTKEERLKKLCDLYAKVLGSQEALHPVHYEEKNWCEEQYSGGCYTSYFPPGIMTQYGRVLRQPVGRIYFAGTETATHWSGYMEGAVEAGERAAREILHAMGKIPEDEIWLPEPESVDVPAKPITTTFLQRHLPSVPGLLKLIGLTTIFSATALGFLAHKRGLLVRI
- Km [1]: 2400 µM
- kcat [1]: 0.233 s⁻¹
- Km [2]: 80 µM
- kcat [2]: 0.9 s⁻¹
- Km [3]: 110 µM
- kcat [3]: 6.9 s⁻¹
- Km [4]: 200 µM
- kcat [4]: 6 s⁻¹
- Km [5]: 1800 µM
- kcat [5]: 1.42 s⁻¹
- Km [6]: 650 µM
- kcat [6]: 4.47 s⁻¹
- Km [7]: 900 µM
- kcat [7]: 3.33 s⁻¹
- Km [8]: 100 µM
- kcat [8]: 2 s⁻¹
